16 molecules from patent US20240182575A1 (Ablynx, published 2024) can be followed below.

Experiment [1] has as its target T1, HuCTLA4-HuIgG1 (fusion protein of the extracellular part of human CD152 and human Fc gamma 1, CTLA4-Ig) (human, UniProt P16410 36-161).
T1 construct: extracellular domain; also called CTLA4-hFc; CTLA4-Fc; not shown: human Fc gamma 1
The experiment in a line: SPR, Biacore T100, CTLA4-Ig amine-coupled. The method, then: Affinity constants (Kd) of individual purified Nanobody clones were determined by surface plasmon resonance on a Biacore T100 instrument. […] Remaining reactive groups were inactivated using ethanolamine. […] Each sample was injected for 2 min at a flow rate of 45 μl/min to allow for binding to chip-bound antigen. Next, binding buffer without Nanobody was sent over the chip at the same flow rate to allow for dissociation of bound Nanobody. After 2 min, remaining bound analyte was removed by injecting regeneration solution (10 mM Glycine/HCl pH 1.5). Binding curves obtained at different concentrations of Nanobody were used to calculate KD values. For some clones, only a single undetermined concentrations of Nanobody was injected.
A general note: In SPR one partner is held on a chip, and binding of the other changes the refractive index at the surface.

Experiment [2] concerns the target T2, Human IgG1, purified from a human plasma (Sigma-Aldrich Cat #I-5154) (human).
T2 construct: also called HuIgG1
The experiment in a line: ELISA, periplasmic extract on coated antigen, anti-myc detection. The text has this: (§1) To this end, 3 independent ELISA assays were set up. In these ELISAs, either HuCD80 or HuCD86 fusion proteins or human IgG1 were coated on ELISA plates which were washed and then blocked using Marvel skimmed milk powder (Premier Brands UK Ltd., Wirral, Merseyside, UK). […] Four aliquots of periplasmic extract of individual clones prepared as described in Example 4 were allowed to bind in all four types of ELISA plates. Binding of Nanobody to immobilized antigen was detected using mouse anti-c-myc tag monoclonal antibody as a secundary, followed by a goat-anti-mouse (human and bovine serum protein pre-absorbed) HRP conjugate for detection (for detailed protocol, see the prior art and prior applications filed by applicant).
(In an ELISA, binding on a coated surface is turned into a signal by an enzyme label.)

Experiment [3] concerns the target T3, HuCD86-HuIgG1 (fusion protein of the extracellular part of human CD86 and human Fc gamma 1, R&D Systems Cat … (human, UniProt P42081 24-247)).
T3 construct: extracellular domain; bought; also called CD86-IgG1; CD86-Ig; not shown: human Fc gamma 1
T3 sequence (looked up): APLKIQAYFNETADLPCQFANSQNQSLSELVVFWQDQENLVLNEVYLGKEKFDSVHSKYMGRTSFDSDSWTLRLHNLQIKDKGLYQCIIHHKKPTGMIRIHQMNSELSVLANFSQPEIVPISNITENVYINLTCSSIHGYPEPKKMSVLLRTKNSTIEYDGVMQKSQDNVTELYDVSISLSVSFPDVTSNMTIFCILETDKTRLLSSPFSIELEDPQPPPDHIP
The description is as above.
Source text: as §1

The target in experiment [4] is T4, HuCD80-HuIgG1 (fusion protein of the extracellular part of human CD80 and human Fc gamma 1, R&D Systems Cat … (human, UniProt P33681 35-242)).
T4 construct: extracellular domain; bought, produced in NS0 cells; also called CD80-IgG1; CD80-Ig; not shown: human Fc gamma 1
T4 sequence (looked up): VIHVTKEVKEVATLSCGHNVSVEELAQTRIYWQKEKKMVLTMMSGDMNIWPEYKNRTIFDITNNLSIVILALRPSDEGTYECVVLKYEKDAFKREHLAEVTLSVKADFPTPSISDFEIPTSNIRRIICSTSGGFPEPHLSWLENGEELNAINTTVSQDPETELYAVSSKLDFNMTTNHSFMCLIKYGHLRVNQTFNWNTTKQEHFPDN
The description is as above.
Source text: as §1

The target in experiment [5] is T5, human CTLA4 (Y201 mutated to valine) on stably transfected CHO-K1 cells (human, UniProt P16410 36-223).
T5 construct: whole, on cells; the mutation of the intracellular position Y201 keeps the protein on the membrane; also called human CTLA4 overexpressing CHO cells; human CTLA4 transfectant
The experiment in a line: FACS, direct binding titration on human CTLA4 CHO cells (head prints IC50). As for the experimental part:
Binding of putative CTLA4 reactive Nanobodies clones was detected using unlabeled anti-c-myc tag mouse monoclonal antibody 9E10, followed by a phycoerythrin conjugated F(ab′)2 derived from goat-anti-mouse IgG (human and bovine crossabsorbed), and read on a BD FACSarray instrument. Dead cells were excluded from the analysis by gating out TOPRO3 vital dye positive scoring cells. Binding of the Nanobodies to cells was evaluated in BD FACSarray control software as PE channel histograms.
Background: A flow cytometer gives signals particle by particle.

In experiment [6] the target is T6, cynomolgus monkey CTLA4 on stably transfected CHO-K1 cells (human CTLA4 cDNA with S13N, I17T and L105M) (human backbone with cynomolgus monkey …, UniProt P16410 36-223).
T6 chain: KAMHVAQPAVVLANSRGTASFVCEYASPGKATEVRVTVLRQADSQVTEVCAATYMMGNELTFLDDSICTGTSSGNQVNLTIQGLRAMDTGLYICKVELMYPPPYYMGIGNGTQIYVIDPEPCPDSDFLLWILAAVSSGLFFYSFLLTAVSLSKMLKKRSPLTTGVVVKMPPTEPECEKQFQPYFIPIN
The experiment in a line: FACS, direct binding titration on cyno CTLA4 CHO cells (head prints IC50).

Experiment [7] deals with T3, HuCD86-HuIgG1 (fusion protein of the …). The experiment in a line: SPR, Biacore 3000, antigen amine-coupled. The method, then:
Affinity constants (Kd) of individual purified Nanobody clones were determined by surface plasmon resonance on a Biacore 3000 instrument. […] Remaining reactive groups were inactivated using ethanolamine. Nanobody binding was assessed at 1 and 0.1 microM. Each sample was injected for 4 min at a flow rate of 45 μl/min to allow for binding to chip-bound antigen. Next, binding buffer without Nanobody was sent over the chip at the same flow rate to allow for dissociation of bound Nanobody. After 2 min, remaining bound analyte was removed by injecting regeneration solution (50 mM NaOH or Glycine/HCl pH 1.5). Binding curves obtained at different concentrations of Nanobody were used to calculate Kd values.

T1 sequence (P16410 36-161 limits assumed): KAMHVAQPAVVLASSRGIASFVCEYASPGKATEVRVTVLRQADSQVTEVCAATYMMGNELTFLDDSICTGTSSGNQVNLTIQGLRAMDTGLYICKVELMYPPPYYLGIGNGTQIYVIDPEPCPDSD
T5 sequence (P16410 other isoform, or with tags, fused parts or gaps, change not shown): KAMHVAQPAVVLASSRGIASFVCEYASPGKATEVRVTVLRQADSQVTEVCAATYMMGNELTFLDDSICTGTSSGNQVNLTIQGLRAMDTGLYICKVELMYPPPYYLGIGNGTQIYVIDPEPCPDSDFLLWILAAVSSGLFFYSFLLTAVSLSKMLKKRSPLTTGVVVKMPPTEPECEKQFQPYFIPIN

B1: 4CTLAPMP02C11 (VHH)
VHH: EVQLVESGGGLVQPGGSLRLSCAASGNIFTRHIMGWYRQAPGKQRELVASITPGDNINYADSVKGRFTISRDGAKNTVYLQMNSLKPEDTAVYYCNAHGSILLDRTNYWGQGTQVTVSS
notes: short label tied to the entry by the clone code only; not shown: C-terminal c-myc tag and His6 tag
What is called koff is a measure of how fast the partners let go of each other. B1: in experiment [1], the koff amounted to 0.0235 s⁻¹.

B2: 4CTLAPMP08E5 (VHH)
VHH: EVQLVESGGGLVQPGGSLRLSCAASRDIFTRNIMGWYRQAPGKQRDLVASITPGGNMYYADSVKGRFTISRDGAKNTVYLQMNSLKPEDTAVYYCNAHGSILLDRSNYWGQGTQVTVSS
notes: label 8E5.4 tied to 4CTLAPMP08E5 by the clone code only; the suffix .4 is not explained; also called 8E5.4; not shown: C-terminal c-myc tag and His6 tag
In experiment [1], B2 returned an off-rate constant (koff) of 0.00386 s⁻¹.

B3: CD8086PMP1D1 (VHH)
VHH: EVQLVESGGGLVQAGGSLRLSCAASGRTFSSKAMGWFRQAPGKERDFVAAITWSGGSTYYADHVKGRFTISRDNAKNTVYLQMNSLKPEDTAVYYCATNPYGLGQVGYDYWGQGTQVTVSS
notes: not shown: C-terminal c-myc tag and His6 tag
Consider B3, for which the OD in experiment [2] was 0.046 OD; in experiment [3] it was 0.043 OD; in experiment [4] it was 1.89 OD.

B4: CD8086PMP2A7 (VHH)
VHH: EVQLVESGGGLVQAGGSLRLSCAASGRTFSSKAMGWFRQAPGKERDFVAAITWSGGSTYYADHVKGRFTISRDNAKNTVYLQMNSLKPEDTAVYYCATNPYGLGQVGYDYWGQGTQVTVSS
notes: as for B3
Regarding B4, the OD amounted to 0.043 OD in experiment [2], 0.042 OD in experiment [3] and 1.71 OD in experiment [4].

B5: 4CTLAPMP13B2 (VHH)
VHH: EVQLVESGGGLVQPGGSLRLSCVASGIHFAISTINWYRQAPGKQRESVAAITGTSVTGYADSVKGRFTLSRDNAKNTVYLQMDNLKPEDTAVYYCNVWSGRDYWGQGTQVTVSS
notes: as for B1
A word on the IC50: it is the point on the concentration scale where inhibition reaches its midpoint. Take B5: the koff in experiment [1] was found to be 0.0067 s⁻¹. The IC50 in experiment [5] turned out to be 3.6 nM.

B6: 4CTLAPMP17E3 (VHH)
VHH: EVQLMESGGGLVTAGGSLRLSCAASGGTFGHYAMAWFRRPPGNEREFVAGIGWTYTTFYADSVKGRFAISRDNAENTVYLQMNNLKPDDTAVYYCAAAELKGRNLRVPDYEHWGQGTQVTVSS
notes: as for B1
B6 showed a koff in experiment [1] of 0.00489 s⁻¹. Further, the half-inhibitory concentration (IC50) in experiment [5] is 11.2 nM.

B7: CD8086PMP1A3 (VHH)
VHH: EVQLVESGGGLVQAGGSLRLSCAASGPTSSSYSMGWFRQAPGKEREFVAAINWSHGVTYYADSVKGRFTISRDIAKNTVYLQMNSLKPEDTAVYYCAANEYGLGSSIYAYKHWGQGTQVTVSS
notes: as for B3
As for B7, the OD in experiment [2] came out at 0.052 OD; in experiment [3], 0.053 OD; in experiment [4], 1.92 OD.

B8: CD8086PMP2E6 (VHH)
VHH: EVQLVESGGGLVQAGGSLRLSCAASGSIFSIYDMGWYRQAPGKQRVLVATITSGGSTNYADSVKGRFTISRDDAKNTVYLQMNSLKPEDTAVYYCNAIAHEEGVYRWDFWGQGTQVTVSS
notes: as for B3
On to B8, for which the results for the OD in experiment [2], in experiment [3] and in experiment [4] were 0.049 OD, 0.538 OD and 1.52 OD, respectively.

B9: 4CTLAPMP06C10 (VHH)
VHH: EVQLVESGGGLVQAGGSLRLSCAASGRTFSNYTIAYFRQAPGREREFAAAISPHGTLRSFADSVKDRFTISRDNAKNTVWLQMNSLKLEDTAVYYCAADPSGWGLRQHSENEYPYWGLGTQVTVSS
notes: as for B1
With B9, the half-inhibitory concentration (IC50) in experiment [6] is 5.47 nM; in experiment [5], 5.73 nM. The same molecule gave a koff in experiment [1] of 0.00279 s⁻¹.

B10: 4CTLAPMP11E3 (VHH)
VHH: EVQLVESGGGLVEPGGSLRLSCAASGSISSYNVMGWYRQAPGQQRDLVAHIASNGEIMYADSAKGRFTISRDNAKKTVYLQMNSLKPEDTAVYYCKLWVLGNDYWGQGTQVTVSS
notes: also called 11E3 WT; not shown: C-terminal c-myc tag and His6 tag
By Kd is commonly meant the concentration at which binding is half-saturated. A word on the kon: it is the second-order rate constant of association. B10: in experiment [6], the IC50 is 4.5 nM. In experiment [1], this molecule came in with a Kd of 10 nM, a dissociation rate constant (koff) of 0.00496 s⁻¹ and a kon of 742000 M⁻¹ s⁻¹. The IC50 in experiment [5] came to 4.91 nM.

B11: 4CTLAPMP12H2 (VHH)
VHH: EVQLVESGGGLVEPGGSLRLSCAASGSISSYNVMGWYRQAPGQQRDLVAHIASNGEIMYADSAKGRFTISRDNAKKTVYLQMNSLKPEDTAVYYCKLWVLGNDYWGQRTQVTVSS
notes: as for B1
In experiment [6], B11 returned a 50% inhibitory concentration (IC50) of 5.65 nM. Further, in experiment [1], the dissociation constant Kd was found to be 7.52 nM, the koff stood at 0.00258 s⁻¹ and the on-rate (kon) was 349000 M⁻¹ s⁻¹. Besides, in experiment [5], the IC50 worked out at 5.82 nM.

B12: CD8086PMP2B10 (VHH)
VHH: EVQLVESGGGLVQAGGSLRLSCTGSQISFSDNTMNWYRQVPGKQRELVASLSIFGATGYADSVKGRFTISRDIAGNTVYLQMNDLKIEDTAVYYCKLGPVRRSRLEYWGQGTQVTVSS
notes: as for B3
Consider B12, for which, in experiment [2], the OD is 0.044 OD. The molecule also came in with an OD in experiment [3] of 1.73 OD. Further, in experiment [7], the dissociation constant (Kd) came out at 4 nM, the koff was found to be 0.00097 s⁻¹ and the on-rate constant (kon) amounted to 250000 M⁻¹ s⁻¹.

B13: 4CTLAPMP02A5 (VHH)
VHH: EVQLVESGGGLVQAGGSLRLSCAASGRTNSTTLMGWSRRAPGKEREFVAAISGSGTLTSYADSVKGRFAISRDNAKNTVYLQMNSLKPEDTAIYYCAAGLTSWALIPSRTLTTWGQGTQVTVSS
notes: as for B1
On to B13, for which the 50% inhibitory concentration (IC50) turned out to be 7.74 nM in experiment [6] and 5.72 nM in experiment [5]. This molecule registered a koff in experiment [1] of 0.0053 s⁻¹.

B14: 4CTLAPMP03A6 (VHH)
VHH: EVQLVESGGGLVQPGGSLRLSCAAPGRTFSNYAMGWFRQAPGKGREFVADIRWSDGRTYYADSVKGRFTVSRDNAKNTVYLQMNSLKPEDTAVYYCAAQGGVLSGWDYWGQGTQVTVSS
notes: as for B1
In the case of B14, the koff in experiment [1] was 0.0018 s⁻¹.

B15: 4CTLAPMP03C4 (VHH)
VHH: EVQLVESGGGLVQAGGSLRLSCAASGGTFSFYGMGWFRQAPGKEREFVADIRTSAGRTYYADSVKGRFTISRDNAKNTVYLQMNSLKPEDTAVYYCAAEMSGISGWDYWGQGTQVTVSS
notes: as for B1
Turning to B15, the concentration for half-maximal inhibition (IC50) in experiment [6] stood at 6.73 nM; in experiment [5] it was 8.06 nM. The molecule further had a koff in experiment [1] of 0.0205 s⁻¹.

B16: 4CTLAPMP10G5 (VHH)
VHH: EVQLVESGGGLVQAGGSLRLSCAASGGTFSRYIMAWFRQAPGKEREFVAVIDGSGYSTDYAGSVKGRFTIARDNTKNTAYLQMNSLKPEDTALYFCGAGRQYSTGPYWYDYWGQGTQVTVSS
notes: as for B1
In the case of B16, the koff in experiment [1] is 0.00618 s⁻¹. For the same molecule, the concentration for half-maximal inhibition (IC50) in experiment [5] amounted to 4.65 nM.
